Laboratory results taken from a protein production outcome set (Wang et al. 2014).

Assay: label from the status in PepcDB records

Row | Sequence | protein production
1 | MIETPSLVDQYCHGVLRTELGLGTFEAQLARTEGPPAPGTTLFDTQTGFAVRRWCPPLLGLEPHCPPARYLARRRELGVMEADRRLLRGSGITTYLVDAGLPGDLTGPTEMATAADADTREIVRLELLAEQVADTSGTVESFLANLAEAVHGAAVNAVAFTSVAGVRHGLALAPEPPGPGEVRGAAARWLTGREVGGELSDPVLLRHLLWIAVASGLPLQLHAGLGEPGLRIDRTDPVLLTDFVRTTAGLGTDLVLLHGYPYHRHAAHLAGVFPHVYADSGAALVRTGARAATVLAEILELAPFGKILFSSGAQGLPELHVVAARLFREALGRVLGTWVAEGAWSPGDAQRVAAMIASGNAARVYGLE | failed
2 | MIFERIKSEGLAHLSYFVGSGNEAIVIDPRRDCQIYFDIARREGMKIKYIFETHRNEDYVIGSLELKELTDAEIYHGKGVDFKYGIFVSDGQEFNFGSMKLTALHTPGHTDESMSYALTYPESGKAPLMVFTGDALFVGDVGRTDLYGPEEIPRMAANLYESIFNKILPLGDGVILCPAHGAGSLCGGAISKREYSTLGLERIQNPALQRTDKEEFIKFKLEEKLEFPPYFKKMEQYNLQGPPLLKGLPVPELLFPKEFVKEMEKGAMVVDTRMPHSFGGAHIKGSYGIWLKGLPYYAGWVLPYDKPILLVLEEKDQLETAVSYLVRIGYDSIAGFLNGGISSWYMKALPVESLNLISVQSLKDKIEKNEEMVILDVRRDEEWEKGHIEGARHVYVGHLEENLDKVPRNSPIIVYCDSSRRSNIAASILKKKGYDMVYNVLGSMTAWKNAGYKVVKLEHHHHHH | not failed
3 | MIFRTFIVVLCLIPCFSYGSEAYLNAAEKQFESLLELLPEDEKREWKHRDFEEVMDYSNKLDELKKTAEYIRNQSDSSDVDGILAFSFLADAIQYELDLKTSLVNDLGLHLYRSYEINNVNPVRKAIEAELVALQNASGALQLQSKLTKYFKLQREIAELSKNPPTKMTLEYRPQDNAWDSDPELVKKYVLFDWLSALSKLKEKLYELQKIKDSFASFNYLRLKDPIAFVSLGAQLAILLVAVAGYLISYTEKPSIKVVASLVAASMLLSVFLVFVSSSTIFNLIVQASIPSLFIAYWVYRNSHNKKVQPTADGRG | failed
4 | MIFSPDAFTGSILAVEGIRDAAVILNGPTGCKLYHSFLSDRQFPRESSHDPLAFQDEFYFGQPRVPCTCLDGEDFIQGSLEKFERALAAVAAKEKGLLVVINSPGASLVGDDLENVIKNAGLQNRCFVVEKTGFSLPAAQGFENTTLTLLEHLKLRSLFRPHNRSEFPKKVNLIGLSLLHKHWEGSVAEMKRLLSFLGLEVGAILLAGTSLDEIRESNNAACNIVLFPEYGRRVAEWYRKHFGIPAVFSPLGAPLGFDANESLLREVAAILNIDPAPALAEVREARQTSYRQISRFHSFSGLPKGASFSIQAESSLVFPLTHWLYSYLGMAPYAVKLLPGSDPEMARSLKSFLTEKGFCEAWDRDLSLESVDIAFADSFTLQLLKAKGCCKAGIEISLPDRGYIHFIPKTYLGVSGALFLLEEIINGLRST | failed
5 | MIFSSPSQKNHPVGGLEEVMAQGTFVQALRKEAALSSTFMKGRSLMLNGAVLSIEDSGSRFSKNVTLEGAVRGSRGDLYKTHVALDMDEHEVIDYDCDCPAAYRYPGMCKHAIATALAYLDASGIEPVEGLRTPVRTFTAAPKQAARPSSAAPAVNPNFPFPAPVPTSPSLMKALSDLSDARMDELAGMRRKLAGTVDPDAPKAVLEPSLVPYYNPLFADRFSWALELRIRCGSVSYVVKDIDGMAAAYVRGGTFSYGKKLTFLHAPEAFDEVSVRLLDLVVATVVYLSDITSSRSASYDFARSGFVAERQLPLSEHDIVYMLDLLRGRTISFEPAWSRGTTTHRSYEVAVELSPVGEDEASAKQPPLLAAKIAPAAGGSYDLRLPADTYCFVAGDAAYLVDTHRARRADAAFAQHAAPFLSRLLPCRTPVHIAAEQVGEFCRMALPVLREYTGLTAPAVLDTVAPEPSFAMAIGVDDGLVTCKITVSYGDWSADLFSLGAPGSPFEERRPGVPPRDEMAEFRVMDTAALYFDFYEGGLAFEERDDESLFHLLTEGLSALSELGEVMLSDRLRQVSVRPAPKLSVRATVKSNLLDVELGASGLSAADLAIYLDSYKRHQTFARLTSGDIIRLDEGARAAFGLAEDLGVDAVDLLDGVSLPASSTLFVDSMLARTPELEADRDAAFRRTVERLDTLGKMDFTVPVSLKATLRGYQVDGYQWLGSLEHLGLGGILADDMGLGKTLQMIAHILARVEAGDAKPTLVVCPASLVYNWTAELERFAPSLDVCAIVGAKAQRRVQIAGADEHNVVITSYDLMRRDIDEYAEQDFARVVLDEAQYIKNPLTQVAHAAKRLPAGVRFALTGTPIENRLSELWSIFDFLMPGLLGSRESFAKRFESPVEHAEGDSAARLQALVSPFVLRRVKEDVVADLPEKIEDTVMAQLTGEQRKLYLANQDRIAQQVQHREVSEFKKDKLKVLAELTKLRQICCDPHLHYEDYKAGSAKLDACMELVHGALDGGHHILLFSQFTGMLDIIGKRLAKEDIGFLKLTGASSKESRAKMVAQFQAGEVPVFLISLKAGGVGLNLTAADVVIHYDPWWNVAAQDQATDRAHRIGQQHTVTVYKLIAKDTIEERIMRMQESKRDLVNSVLGGDGISSALFTREDVLALLGGDGR | failed
6 | MIFYFSGTGNSAWVARQLAEGQNEELLSIAMEIDRNKAYKLKEGEKVGFVFPVYAWGPPKIVLRFIHQLKLDKPGYLFFVCTCGDDTGRTAQIFSSAVTRKGWQCVAGYSVTMPNTYVSLPGFDVDDKDIETQKVQNAVARVRFINEEITSRAQMKQYNCHEGALPFTKSYLLRPLFNAFLMSPKPFHTTEACIGCKKCEKVCPVGNITVTDRPVWGGNCTQCLACYHVCPVHAVEYGKMTGKKGQYKGRLLKDL | failed
7 | MIGDLDISGVFLPTLLVLMGITYGLYLLVHGVLTRLHFYRLVWHRALFNVGLYALLLGAVDSLSRYLMT | failed
8 | MIGDMNELLLKSVEVLPPLPDTVSKLRKYVSEANSNIETMKVAEIISSDPLMTAKLLQLANSPYYGFTREITTINQVITLLGVGNIINIVMADSIRDNFKIDVSPYGLNTQNFLKTCNEEATFIANWLNDEDKKLSHLLVPCAMLLRLGIVIFSNFLIQNHKDKDFLAFLNKNENLALAENEFLGVDHISFLGFLLHRWNFDDVLIESICFVRTPHAAREKVKKSAYALAITDHLFAPHDGSSPFNAKAAVALLKEAKTQGINFDLNNLLSKLPNKAKENLNKED | not failed
9 | MIGFLILLFIFVAGFFIMQMLIYRFAKKNIHKYTKIKWFHMWLHMNMKKGPRLDFFDFVVTVLVCIVWKIWLLPFI | failed
10 | MIGHNSPTRTAPLISVTTLDKVALSRLGRDVAVRNRKSRAVLAYLALSPHGFETRERICGLLWSESDEARARASLRQTVVDLKACLAEIEGVFSGDRLNVTLKPSLVTVDVGEIRHELKAGRIPPILLERQRVAESFLNGLDDIDPSFRNWVLVQRQCLQDEFISCLEAMAKAAADWPALKRAGQALLNLDPTNEIGCRAVMEASARMGDQATALRAYKGLWDLLETEFDSEPSAATQALVSDIKLGTIGATDRGAVTAIAAEAFGSQAQRLQEPAAGVLLFVREFELVSGSVRARNAVQIFRSELVASLVRFRDWAVMEWEGHPPRFTENAYCIEATGFIDGPTLRLSMTLKQLASGRYIWSEQFVIENSQWYQTQQRLIRRIAVALGVSMSSERLVQIASIPDLSLEQFDRWLRAQELIFQWRPESEERAEALFRSIIAESPRFAAAYAGLAGIINSRHLIFPGIGRRRERHAEALTFAKQATQIDPIDSRSQLHLAWSYAMNGIPQQAAISFLLACELNGNDPWTLVSASLGLAYCDDRENARRIATLALQTGLGVSRLQWSYQAGVRFLLGDYAGCVEAAERAADSVSYIGGWKAAALALLGNEKAAHEEADRFLAQLKTTWFGNESPEPGNVGTWLMDSFPIYSPEAVEALRRGLAGAGIVVSHMPLPEPVLSAAPDGVVRDA | failed
11 | MIGIVMLSKIANIDAARQGLDLKVKVLSLNKKTIKNDRGETTYFYGIIGDDTGTVSFTAWSFPAAVKSGDVVEIKNCYSSLYNGKIRIYVDSRSQVVLKPDEYLEVKRTVELVKLRDLSLTTPYVSVIGRISGIKEKNYDSDRGSKIVYQGFIEDETAKVRISSFGKPLKDGEIVRVENARVSQYNGYMGISIGENSSIDNVQAQIEVGSRPIFIAEIKSPIGGVTITGFAVSVGQGSRIFTKCSICKKILEDGKCKDHPRAPVYLDIFGYFLLSDGTGSLTCYLNKDSFLPYIKMDTEEFKSQAFSMNPNMLIKKNILGKCLSVTGDLRLRDDKITMNASSIKEADADSVKDIEKTIQEEFQLEHHHHHH | failed
12 | MIGKHFIITGATSGLGFAITNELLQRGAHVTILARNIDKFNRIKENYFKPEHINVIKCDLMQRKDIESLQKFLNTPINGFIYSSGVGYFKSISEHSTREVVETYEVNLTNFNLLYKVIQPQLVKAAYIVGISSQAALVSQANAAHYGASKAGFSAVLNALRLEQPELKVLNVQPGPIDTPFQKNADPTLKYFKNYRHMMIQPQQLAKQIVEGIILNKIEINQPSWMQIMLKFYQLCPRTLEKLCPNLFKNKV | failed
13 | MIHLVSLLALAFAVSLDSFGVGLTYGLRKMKIPFKSLLFIAGCSAVSILIAMGFGMTIQQYLSPAIAESLGGIILILIGCWALYQAFRPAKNGHKTKDDHVILNFEIKMLGVVIRILRKPMVADFDNSGAITGREAVILGIALSLDAFGAGIGAALIGFHPLYMAVSVAVMSALFVSLGMKSGYRFADSYWIKRFSFIPGLLLVLIGVFNLMM | failed
14 | MIHSRTILVPTLLFQLALALPLAAGADSRCDDAKRLAATIPVQADGDTTRKTEDVVLESCADGAAGYFVRGLRAERAGRHDEAIKDYREALRLEPAFPRAQGNLGLALLAKGSHDDAVVELTRAISSDPDPGYHHGLAMIFGQRKIYSLALYHYAEAAKGLPADPVIPTELAALYREMGKVSDAEKQYRKALSLSPSHEEARVGLASLYMAEGRTDRAIEELKQAQIASPGNKEVSSLLAEAYEKKGDRQAADYQSLLAGKQRGVLSDERLRRGDELMQAKEYAKAAEEFKAALREKPDWPEALMRLAEAQTAAGFDDEAITSYKELIRLKLGTGDTHYNLGVLYERKGLIDEAVVEYKQAIHSSPDNGDARRRLADIYALRGSYPQAIEQYRELLKKGDNNPVLHLKLARALLGAKNPKEAMASYQDALKIAPDNLEARRELAALYRKGNQNEEAEKQYKEILRIKKDDAEARNILTALYVKSKKYDELITLLKDGVELAPNDPASHYKLGLIYEFKKDYDAAEQEYKKAVELKGDHAKSLNALGRIYLKTGKISEAKGALEAAKKADPGMEETAVLLSNIKEELSPEPPRYSKKGRKGKASKEAKKSRASKKKSSKKGAKATSKKSSTKSGGKAKKAKKSH | failed
15 | MIIADNIKQFHSIRNSLIKQQKIGFVPTMGALHNGHISLIKKAKSENDVVIVSIFVNPTQFNNPNDYQTYPNQLQQDIQILASLDVDVLFNPSEKDIYPDGNLLRIEPKLEIANILEGKSRPGHFSGMLTVVLKLLQITKPNNLYLGEKDYQQVMLIKQLVKDFFINTKIIVCPTQRQPSGLPLSSRNKNLTSTDIEIANKIYEILRQDDFSNLEELTNKINSTGAKLQYIQKLNNRIFLAFYIGKVRLIDNFLKETGPSC | not failed
16 | MIIDTPLADRYPHAMKNQDESGDGWESLCERCGLCCFEKIEDENGTVFFTATPCRYLDVTTRQCVIYDKRFDINPECVKLTEELVRTLPWLHDDCAYRKALGVRLSKVRMNGRNKGKRG | failed
17 | MIIEGPVIKFGDKIDTDIIIPARYLKYTDPQYLAQHVMEPLDPEFYKKASKGVIIVAGKVFGMGSSREQAAIALKAAGVKAVVAESFARIFYRNAINNGLPVITLPNSTKEIDENSYVKIDVETGEILVGNKVLKGKGITGMALEILQAGGIMEYLKKMQTVNRN | failed
